Assay results published in PMC8080530, “Glucocorticoid receptor Thr524 phosphorylation by MINK1 induces interactions with 14-3-3 protein regulators” (The Journal of Biological Chemistry, 2021).
Where two headings read alike, the source gives them in different places. Non-standard residues stand in square brackets, D forms with d. Residues, ends and D or L forms follow the SMILES beside them. Primed or numbered codes have the meaning given here. No end group written: not given here. *: point of attachment. FITC′ = fluorescein isothiocyanate tag added on resin (method C); FITC = O=C1OC2(c3ccc(O)cc3Oc3cc(O)ccc32)c2ccc(NC(=S)*)cc21; pT = C[C@@H](OP(=O)(O)O)[C@H](N)C(=O)O; pS = N[C@@H](COP(=O)(O)O)C(=O)O

Legend:
[1] = target: T1, 14-3-3ζ (Homo sapiens, UniProt P63104); test: FP assay with GR phosphorylated peptides and 14-3-3ζ; format: binding
T1 construct: Full-length expression and purification of 14-3-3; made in house; host or cells: E. coli BL21 (DE3)STAR
T1 sequence (P63104 1-245): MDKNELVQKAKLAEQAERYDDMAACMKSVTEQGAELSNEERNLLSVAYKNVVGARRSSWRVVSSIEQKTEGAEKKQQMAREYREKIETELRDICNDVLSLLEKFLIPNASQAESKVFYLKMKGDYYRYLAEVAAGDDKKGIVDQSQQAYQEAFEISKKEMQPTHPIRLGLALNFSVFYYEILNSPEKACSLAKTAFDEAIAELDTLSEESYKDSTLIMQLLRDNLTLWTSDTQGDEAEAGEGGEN
Outline: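 Fluorescence polarization (ex 485/em 520 nm) was read in triplicate after 30-min RT incubation. Binding data were fitted to a standard Hill equation and expressed in mP units. The dynamic range (ΔmP) is the difference between bound and free peptide signals.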

[2] = target: T2, 14-3-3σ (Homo sapiens, UniProt P31947); test: FP assay with GR phosphorylated peptides and 14-3-3σ; format: binding; conditions: FITC-labeled peptide titrated with 14-3-3σ, 30 min RT, triplicates
T2 construct: Full-length expression and purification of 14-3-3; made in house; host or cells: E. coli BL21 (DE3)STAR
T2 sequence (P31947 1-248): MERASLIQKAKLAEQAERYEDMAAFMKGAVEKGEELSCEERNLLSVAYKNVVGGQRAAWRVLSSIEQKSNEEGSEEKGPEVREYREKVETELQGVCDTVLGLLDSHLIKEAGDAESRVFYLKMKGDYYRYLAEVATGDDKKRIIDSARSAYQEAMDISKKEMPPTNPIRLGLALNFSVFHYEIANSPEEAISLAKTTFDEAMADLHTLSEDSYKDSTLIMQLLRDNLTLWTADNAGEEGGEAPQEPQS
Description: After 30-min incubation at RT, the plates were read on a plate reader PHERAstar (BMG LABTECH GmbH) for FP signal using […] and standard excitation (485 nm) and emission (520 nm). Measurements were performed as triplicates. Binding data were fit to a standard Hill equation using the software Genedata Screener. The figures were made using the software GraphPad Prism 8. FP data were expressed as millipolarization (mP) units, and the dynamic range (ΔmP) was the difference of the signals from the bound peptide and free peptide. Errors are the standard error of the fit.

[3] = target: T3, human 14-3-3σ, full length, 6His-Linker-h14-3-3 (human, UniProt P31947 1-248); test: fluorescence polarisation; FITC-labelled peptide at 60 nM (monophosphorylated) or 10 nM (doubly phosphorylated) titrated with 14-3-3ζ or 14-3-3σ in dilution series from 300 μM or 150 μM; 30 min at RT; 384-well plate; Hill fit; triplicates; conditions: both partners purified
T3 construct: 14-3-3 protein sigma, human, cloned in pProEx Htb; also called σ isoform of human 14-3-3; source: E. coli BL21 (DE3)STAR, purified (Ni-NTA, SEC); not shown: His6 with linker [residues removed], N-terminal, kept
T3 sequence (looked up): T2 sequence (P31947 1-248)

[4] = target: T4, human 14-3-3ζ, full length, 6His-Linker-h14-3-3 (human, UniProt P63104 1-245); test: SPR
T4 chain: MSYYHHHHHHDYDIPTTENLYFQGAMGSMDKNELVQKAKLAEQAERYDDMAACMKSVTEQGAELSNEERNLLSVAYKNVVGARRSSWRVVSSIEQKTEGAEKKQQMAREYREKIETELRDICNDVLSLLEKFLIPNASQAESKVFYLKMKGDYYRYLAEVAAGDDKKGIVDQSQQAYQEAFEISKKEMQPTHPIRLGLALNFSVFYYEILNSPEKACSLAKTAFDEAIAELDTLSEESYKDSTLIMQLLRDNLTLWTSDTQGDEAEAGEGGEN

[5] = target: T4, human 14-3-3ζ, full length, …; test: FP
[6] = FP, doubly phosphorylated 31-mer peptides, triplicates, read-out: Kd with 14-3-3ζ (values in nM)
[7] = read-out: PKd with 14-3-3ζ (converted)

CC[C@H](C)[C@H](NC(=O)[C@@H](NC(=O)[C@H](CCCCN)NC(C)=O)[C@@H](C)O)C(=O)N[C@H](C(=O)N1CCC[C@H]1C(=O)N[C@@H](C)C(=O)N[C@H](C(=O)N[C@@H](CC(C)C)C(=O)N1CCC[C@H]1C(=O)N[C@@H](CCC(N)=O)C(=O)N[C@@H](CC(C)C)C(=O)N[C@H](C(=O)N1CCC[C@H]1C(=O)NCC(=O)NCC(=O)NCC(=O)NCC(=O)NCC(=O)N[C@@H](CCCNC(=N)N)C(=O)N[C@@H](CO)C(=O)N[C@@H](Cc1ccc(O)cc1)C(=O)N[C@@H](CCCNC(=N)N)C(=O)N[C@@H](CCC(N)=O)C(=O)N[C@@H](CO)C(=O)N[C@@H](COP(=O)(O)O)C(=O)N[C@@H](C)C(=O)N[C@@H](CC(N)=O)C(=O)N[C@@H](CC(C)C)C(=O)N[C@@H](CC(C)C)C(=O)N[C@@H](CS)C(=O)N[C@@H](Cc1ccccc1)C(=O)O)[C@@H](C)O)[C@@H](C)OP(=O)(O)O)C(C)C [GR_pT524-pS617] (Ac-KTIVPA[pT]LPQLTPGGGGGRSYRQS[pS]ANLLCF-OH)
Kd [1, 6]: 18 nM
fold improvement of binding affinity with 14-3-3ζ compared with the individual monomers ([1]; avidity effect of dimeric peptide): 1000 fold
Kd [2]: 0.053 ± 0.026 µM

CC[C@H](C)[C@H](NC(=O)[C@@H](NC(=O)[C@@H](N)CCCCN)[C@@H](C)O)C(=O)N[C@H](C(=O)N1CCC[C@H]1C(=O)N[C@@H](C)C(=O)N[C@H](C(=O)N[C@@H](CC(C)C)C(=O)N1CCC[C@H]1C(=O)N[C@@H](CCC(N)=O)C(=O)N[C@@H](CC(C)C)C(=O)N[C@@H](C)C(=O)N1CCC[C@H]1C(=O)NCC(=O)NCC(=O)NCC(=O)NCC(=O)NCC(=O)N[C@@H](CCCNC(=N)N)C(=O)N[C@@H](CO)C(=O)N[C@@H](Cc1ccc(O)cc1)C(=O)N[C@@H](CCCNC(=N)N)C(=O)N[C@@H](CCC(N)=O)C(=O)N[C@@H](CO)C(=O)N[C@@H](COP(=O)(O)O)C(=O)N[C@@H](C)C(=O)N[C@@H](CC(N)=O)C(=O)N[C@@H](CC(C)C)C(=O)N[C@@H](CC(C)C)C(=O)N[C@@H](CS)C(=O)N[C@@H](Cc1ccccc1)C(=O)O)[C@@H](C)OP(=O)(O)O)C(C)C [GR_T529A] (H-KTIVPA[pT]LPQLAPGGGGGRSYRQS[pS]ANLLCF-OH)
Kd [1, 7]: 50.1 nM

CC[C@H](C)[C@H](NC(=O)[C@@H](NC(=O)[C@H](C)N)[C@@H](C)O)C(=O)N[C@H](C(=O)N1CCC[C@H]1C(=O)N[C@@H](C)C(=O)N[C@H](C(=O)N[C@@H](CC(C)C)C(=O)N1CCC[C@H]1C(=O)N[C@@H](CCC(N)=O)C(=O)N[C@@H](CC(C)C)C(=O)N[C@H](C(=O)N1CCC[C@H]1C(=O)NCC(=O)NCC(=O)NCC(=O)NCC(=O)NCC(=O)N[C@@H](CCCNC(=N)N)C(=O)N[C@@H](CO)C(=O)N[C@@H](Cc1ccc(O)cc1)C(=O)N[C@@H](CCCNC(=N)N)C(=O)N[C@@H](CCC(N)=O)C(=O)N[C@@H](CO)C(=O)N[C@@H](COP(=O)(O)O)C(=O)N[C@@H](C)C(=O)N[C@@H](CC(N)=O)C(=O)N[C@@H](CC(C)C)C(=O)N[C@@H](CC(C)C)C(=O)N[C@@H](CS)C(=O)N[C@@H](Cc1ccccc1)C(=O)O)[C@@H](C)O)[C@@H](C)OP(=O)(O)O)C(C)C [GR_K518A] (H-ATIVPA[pT]LPQLTPGGGGGRSYRQS[pS]ANLLCF-OH)
Kd [1, 6]: 110 nM

CC(C)C[C@H](NC(=O)[C@@H](NC(=O)[C@@H](NC(=O)[C@H](CC(N)=O)NC(=O)[C@H](CO)NC(=O)[C@@H]1CCCN1C(=O)[C@H](COP(=O)(O)O)NC(=O)[C@H](CO)NC(=O)[C@H](CC(C)C)NC(=O)[C@@H](NC(=O)[C@H](CC(C)C)NC(=O)[C@H](CC(=O)O)NC(=O)CN)C(C)C)C(C)C)[C@@H](C)O)C(=O)O [GR_pS267] (H-GDLVLS[pS]PSNVTL-OH; N-terminus assumed)
Kd ([1]; FITC-labeled peptide 60 nM (monophosphorylated) or 10 nM (doubly phosphorylated) titrated with 14-3-3ζ, 30 min RT, Hill fit, triplicates, read-out: Kd with 14-3-3ζ by FP): > 150000 nM

CC[C@H](C)[C@H](NC(=O)[C@@H](NC(=O)[C@@H](N)CCCCN)[C@@H](C)O)C(=O)N[C@@H](C)C(=O)N1CCC[C@H]1C(=O)N[C@@H](C)C(=O)N[C@H](C(=O)N[C@@H](CC(C)C)C(=O)N1CCC[C@H]1C(=O)N[C@@H](CCC(N)=O)C(=O)N[C@@H](CC(C)C)C(=O)N[C@H](C(=O)N1CCC[C@H]1C(=O)NCC(=O)NCC(=O)NCC(=O)NCC(=O)NCC(=O)N[C@@H](CCCNC(=N)N)C(=O)N[C@@H](CO)C(=O)N[C@@H](Cc1ccc(O)cc1)C(=O)N[C@@H](CCCNC(=N)N)C(=O)N[C@@H](CCC(N)=O)C(=O)N[C@@H](CO)C(=O)N[C@@H](COP(=O)(O)O)C(=O)N[C@@H](C)C(=O)N[C@@H](CC(N)=O)C(=O)N[C@@H](CC(C)C)C(=O)N[C@@H](CC(C)C)C(=O)N[C@@H](CS)C(=O)N[C@@H](Cc1ccccc1)C(=O)O)[C@@H](C)O)[C@@H](C)OP(=O)(O)O [GR_V521A] (H-KTIAPA[pT]LPQLTPGGGGGRSYRQS[pS]ANLLCF-OH)
Kd [1, 7]: 39.8 nM

CC[C@H](C)[C@H](NC(=O)[C@@H](NC(=O)[C@@H](N)CCCCN)[C@@H](C)O)C(=O)N[C@H](C(=O)N1CCC[C@H]1C(=O)N[C@@H](C)C(=O)N[C@H](C(=O)N[C@@H](CC(C)C)C(=O)N1CCC[C@H]1C(=O)N[C@@H](CCC(N)=O)C(=O)N[C@@H](CC(C)C)C(=O)N[C@H](C(=O)N1CCC[C@H]1C(=O)NCC(=O)NCC(=O)NCC(=O)NCC(=O)NCC(=O)N[C@@H](CCCNC(=N)N)C(=O)N[C@@H](CO)C(=O)N[C@@H](Cc1ccc(O)cc1)C(=O)N[C@@H](CCCNC(=N)N)C(=O)N[C@@H](C)C(=O)N[C@@H](CO)C(=O)N[C@@H](COP(=O)(O)O)C(=O)N[C@@H](C)C(=O)N[C@@H](CC(N)=O)C(=O)N[C@@H](CC(C)C)C(=O)N[C@@H](CC(C)C)C(=O)N[C@@H](CS)C(=O)N[C@@H](Cc1ccccc1)C(=O)O)[C@@H](C)O)[C@@H](C)OP(=O)(O)O)C(C)C [GR_Q615A] (H-KTIVPA[pT]LPQLTPGGGGGRSYRAS[pS]ANLLCF-OH)
Kd [1, 7]: 39.8 nM

B1: GR_pT524, FITC-labelled 13-mer phosphopeptide (peptide, UniProt P04150 518-530, looked up)
peptide: {FITC′}-KTIVPA[pT]LPQLTP
modifications: also: phosphothreonine at 524 (T2, T7 or T12)
notes: glucocorticoid receptor (GR), human; 13-mer centred on T524; source: synthetic peptide
binding result [3]: binds

KTIVPATLPQLTP (also: phosphothreonine at T524, place in chain not given here) [GR_pT524, 13-mer phosphopeptide used for SPR and crystallography]
Kd [4]: 22 µM

RSYRQS[pS]ANLLCF (not fully specified (N-terminus)) [GR_pS617, 13-mer phosphopeptide used for SPR and crystallography]
Kd [4]: 27 µM

B2: GR pS83, FITC-labelled 13-mer phosphopeptide (peptide, UniProt P04150 77-89, looked up)
peptide: {FITC}-DLSKAV[pS]LSMGLY
notes: glucocorticoid receptor (GR), human; 13-mer centred on S83; source: synthetic peptide
binding result [3]: binds
Kd [5]: 72 µM

B3: GR pT561, FITC-labelled 13-mer phosphopeptide (peptide, UniProt P04150 555-567, looked up)
peptide: {FITC}-STWRIM[pT]TLNMLG
notes: glucocorticoid receptor (GR), human; 13-mer centred on T561; source: synthetic peptide
binding result [3]: binds

B4: GR_pS134, FITC-labelled 13-mer phosphopeptide (peptide, UniProt P04150 128-140, looked up)
peptide: {FITC′}-NLNRST[pS]VPENPK
modifications: also: phosphoserine at 134 (S5 or S7)
notes: glucocorticoid receptor (GR), human; 13-mer centred on S134; also called 13-mer peptide centered on GR S134; source: synthetic peptide
Kd [3]: 110 µM

{FITC}-INEQRM[pT]LPCMYD (also: phosphothreonine at T635, place in chain not given here)
Kd [5]: 55 µM

B5: GR_pS617, FITC-labelled 13-mer phosphopeptide (peptide, UniProt P04150 611-623, looked up)
peptide: {FITC′}-RSYRQS[pS]ANLLCF
modifications: also: phosphoserine at 617 (S6 or S7)
notes: glucocorticoid receptor (GR), human; 13-mer centred on S617; source: synthetic peptide
binding result [3]: binds
Kd [5]: 25 µM

B6: GR pT635, FITC-labelled 13-mer phosphopeptide (peptide, UniProt P04150 629-641, looked up)
peptide: {FITC}-INEQRM[pT]LPCMYD
notes: glucocorticoid receptor (GR), human; 13-mer centred on T635; source: synthetic peptide
binding result [3]: binds

{FITC}-KTIVPATLPQLTP (also: phosphothreonine at T524, place in chain not given here)
Kd [5]: 38 µM
